# According to patent publication US20260034246A1 (REGENXBIO, published 2026):
# B1: BB5.1 scFv.LH (scFv)
# scFv: NIMMTQSPSSLAVSAGEKVTMSCKSSQSVLYSSNQKNYLAWYQQKPGQSPKLLIYWASTRESGVPDRFTGSGSGTDFTLTISSVQAEDLAVYYCHQYLSSRTFGGGTKLEIKRGGGGSGGGGSGGGGSQVQLQQPGAELVRPGTSVKLSCKASGYTFTSSWMHWVKQRPGQGLEWIGVIDPSDSYTNYNQKFKGKATLTVDTSSSTAYMQLSSLTSEDSAVYYCARGGGSSYNRYFDVWGTGTTVTVSS
# notes: also called Anti-mC5 scFV; BB5.1 scFv mAb
# B2: Crovalimab IgG (full-length mAb) (antibody, V domains shown)
# VH: QVQLVESGGGLVQPGRSLRLSCAASGFTVHSSYYMAWVRQAPGKGLEWVGAIFTGSGAEYKAEWAKGRVTISKDTSKNQVVLTMTNMDPVDTATYYCASDAGYDYPTHAMHYWGQGTLVTVSS
# VL: DIQMTQSPSSLSASVGDRVTITCRASQGISSSLAWYQQKPGKAPKLLIYGASETESGVPSRFSGSGSGTDFTLTISSLQPEDFATYYCQNTKVGSSYGNTFGGGTKVEIKR
# notes: also called Anti-hC5 IgG; Crovalimab full-length mAb
# B3: Crovalimab-Fab-His6 (Fab, V domains shown)
# VH: QVQLVESGGGLVQPGRSLRLSCAASGFTVHSSYYMAWVRQAPGKGLEWVGAIFTGSGAEYKAEWAKGRVTISKDTSKNQVVLTMTNMDPVDTATYYCASDAGYDYPTHAMHYWGQGTLVTVSS
# VL: DIQMTQSPSSLSASVGDRVTITCRASQGISSSLAWYQQKPGKAPKLLIYGASETESGVPSRFSGSGSGTDFTLTISSLQPEDFATYYCQNTKVGSSYGNTFGGGTKVEIKR
# notes: also called Anti-hC5 Fab; Crovalimab Fab mAb
# B4: BB5.1 IgG (full-length mAb) (antibody, V domains shown)
# VH: QVQLQQPGAELVRPGTSVKLSCKASGYTFTSSWMHWVKQRPGQGLEWIGVIDPSDSYTNYNQKFKGKATLTVDTSSSTAYMQLSSLTSEDSAVYYCARGGGSSYNRYFDVWGTGTTVTVSS
# VL: NIMMTQSPSSLAVSAGEKVTMSCKSSQSVLYSSNQKNYLAWYQQKPGQSPKLLIYWASTRESGVPDRFTGSGSGTDFTLTISSVQAEDLAVYYCHQYLSSRTFGGGTKLEIKR
# notes: Surrogate anti-mouse C5 mAb; purified recombinant protein expressed in HEK293 cells; also called Anti-mC5 IgG; BB5.1 full-length mAb
# B5: BB5.1-Fab-His6 (Fab, V domains shown)
# VH: QVQLQQPGAELVRPGTSVKLSCKASGYTFTSSWMHWVKQRPGQGLEWIGVIDPSDSYTNYNQKFKGKATLTVDTSSSTAYMQLSSLTSEDSAVYYCARGGGSSYNRYFDVWGTGTTVTVSS
# VL: NIMMTQSPSSLAVSAGEKVTMSCKSSQSVLYSSNQKNYLAWYQQKPGQSPKLLIYWASTRESGVPDRFTGSGSGTDFTLTISSVQAEDLAVYYCHQYLSSRTFGGGTKLEIKR
# notes: also called Anti-mC5 Fab; BB5.1 Fab mAb
# B6: Crovalimab scFv.HL (scFv)
# scFv: QVQLVESGGGLVQPGRSLRLSCAASGFTVHSSYYMAWVRQAPGKGLEWVGAIFTGSGAEYKAEWAKGRVTISKDTSKNQVVLTMTNMDPVDTATYYCASDAGYDYPTHAMHYWGQGTLVTVSSGGGGSGGGGSGGGGSDIQMTQSPSSLSASVGDRVTITCRASQGISSSLAWYQQKPGKAPKLLIYGASETESGVPSRFSGSGSGTDFTLTISSLQPEDFATYYCQNTKVGSSYGNTFGGGTKVEIKR
# notes: also called Anti-hC5 scFV; Crovalimab scFv mAb
# Key:
# [1] = target: T1, Mouse Complement C5 Protein (mouse, UniProt P06684 19-1680, limits assumed, biotinylated in the Octet assay (sites not given)); assay: BLI (OctetRED384), biotinylated mouse C5 on SA biosensor, BB5.1 scFv.LH as analyte, 30 C
# T1 construct: native C5 of normal mouse serum in the hemolysis assays; also called Mouse C5; mC5
# [2] = target: T2, Cyno Complement C5 Protein (cynomolgous macaque); assay: BLI (OctetRED384), biotinylated cyno C5 on SA biosensor, Crovalimab IgG as analyte, 30 C
# T2 construct: also called Cyno C5; Biotinylated cyno C5 antigen
# Description: The assay was performed at 30° C. and at 1000 rpm. Biotinylated cyno C5 antigen was firstly immobilized onto SA biosensor.
# [3] = target: T1, Mouse Complement C5 Protein; assay: BLI (OctetRED384), biotinylated mouse C5 on SA biosensor, Crovalimab IgG as analyte, 30 C
# Description: (§1) The assay was performed at 30° C. and at 1000 rpm. Biotinylated mouse C5 antigen was firstly immobilized onto SA biosensor.
# [4] = target: T1, Mouse Complement C5 Protein; assay: BLI (OctetRED384), biotinylated mouse C5 on SA biosensor, Crovalimab-Fab-His6 as analyte, 30 C
# Description: as §1
# [5] = target: T2, Cyno Complement C5 Protein; assay: BLI (OctetRED384), biotinylated cyno C5 on SA biosensor, Crovalimab-Fab-His6 as analyte, 30 C
# [6] = target: T1, Mouse Complement C5 Protein; assay: BLI (OctetRED384), biotinylated mouse C5 on SA biosensor, BB5.1 IgG as analyte, 30 C
# Description: as §1
# [7] = target: T1, Mouse Complement C5 Protein; assay: BLI (OctetRED384), biotinylated mouse C5 on SA biosensor, BB5.1-Fab-His6 as analyte, 30 C
# Description: as §1
# [8] = target: T2, Cyno Complement C5 Protein; assay: BLI (OctetRED384), biotinylated cyno C5 on SA biosensor, Crovalimab scFv.HL as analyte, 30 C
# [9] = target: T1, Mouse Complement C5 Protein; assay: BLI (OctetRED384), biotinylated mouse C5 on SA biosensor, Crovalimab scFv.HL as analyte, 30 C
# Description: as §1
binder,measurement,setting,value
B1,Kd,[1],3.69 nM
B2,Kd,[2],0.0131 nM
same,Kd,[3],0.0229 nM
B3,Kd,[4],4.14 nM
same,Kd,[5],0.0602 nM
B4,Kd,[6],0.0121 nM
B5,Kd,[7],3.47 nM
B6,Kd,[8],0.0845 nM
same,Kd,[9],4.54 nM
